Assay results: US20050054024

Test system: T1, 7-nitrobenz-2-oxa-1,3-diazole (NBD)-NH-Ser-Phe-Arg4-Lys-amide 2
T1 sequence: SFRRRRK

Q: What does the source list for recombinant human protein kinase C γ?
A: Km (Fluorescence assay): 30 µM; Km (Radioactive assay): 5 µM; kcat (Fluorescence assay): 3.17 s⁻¹; kcat (Radioactive assay): 3.5 s⁻¹; kcat/Km (Fluorescence assay): 105000 M⁻¹ s⁻¹; kcat/Km (Radioactive assay): 700000 M⁻¹ s⁻¹
